Among the data in PMC11147780, “Vaccination induces broadly neutralizing antibody precursors to HIV gp41” (Nature Immunology, 2024) are Kd values, retold here.

Sequences and labels used below:
T1: 10E8-GT10.2 epitope scaffold (designed scaffold 10E8-GT10.2 with …, N-linked glycosylation sites added (positions not given))
T1 chain: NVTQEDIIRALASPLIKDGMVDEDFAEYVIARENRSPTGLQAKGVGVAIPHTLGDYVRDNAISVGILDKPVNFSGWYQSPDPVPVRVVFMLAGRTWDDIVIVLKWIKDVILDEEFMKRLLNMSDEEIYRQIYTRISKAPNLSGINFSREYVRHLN

B1: NHP-10E8_MPER-GT10v55_W10-10 (antibody, V domains shown)
VH: EVQVVESGGGLVQPGGSLRLSCAASGFTFSDYAMDWVRQAPGKGLEWVGFIRSKDYGGTAEYAASVKGRFTISRDDSKNTAYLQMSSLKTEDTAVYYCTRDRRYYSFWSGYDRGWYFDLWGQGALVTVSS
VL: DIVMTQTPLSLPVTLGEPASISCRSSQSLLNSEDGNTSLAWYLQKPGQSPQLLIYEVSNRASGVPDRFSGSGSDTDFTLKISRVEAEDVGVYYCMQPLEFPPTFGQGTKVEIK
B2: NHP-10E8_MPER-GT10v55_W26-04 (antibody, V domains shown)
VH: EVQLVESGGGLVQPGGSLRLSCAASGFTFSSYGMHWVRQAPGKGLEWVAVIWYDGSKKYYADSVKDRFTISRDNSKNMLYLQMNNLKLEDTAVYYCARGGAYYNFWSGYYTLLNRFDVWGPGVLVTVSS
VL: DIVMTQTPLSLPVTPGEPASISCRSSQSLLDSEDGNTYLDWYLQKPGQSPQLLIYEVSNRASGVPDRFSGSGSDTDFTLKISRVEAEDVGVYYCMQGLEFPYSFGQGTKVEIK
B3: NHP-10E8_MPER-GT10v55_W26-01 (antibody, V domains shown)
VH: QLQLQESGPGLVKPSETLSLTCAVSGGSISSNYWSWIRQPPGKGLEWIGRISGSGGSTDYNPSLKSRVTISTDTSKNQFSLKLSSVTAADTAVYYCAGNSHYYNFWSGYYGDNSLDVWGRGVLVTVSS
VL: SYDVTQPRSVSVSPGQTARITCGGDNIGSKNVHWYQQKPAQAPVLVIYYDSDRPSGIPERFSGSNSGNTATLTISGVEAGDEADYYCQVWDSSSDHRLFGGGTRLTV
B4: NHP-10E8_MPER-GT10v55_W26-07 (antibody, V domains shown)
VH: QVQLQESGPGLVKPSETLSLTCAVSGGSFSSYWWGWIRQTPGKGLEWIGSIYGSSGTTEYNPSHKSRATISRDTSENQFSLKLSSVTAADTAVYYCARSGEWPYNFWGGTHNPPHWYFDLWGPGTPIIISS
VL: DVVMTQSPLSLSITPGQPASISCRSSHSLIHSNGNTYLSWYQQKPGQPPRRLIYEVSKQDSGVPERFSGSGAGTDFTLKISRVEAEDVGIYYCGQGTHLPLTFGPGTKLDIK
B5: MPER18_d21_45.2_v55_m15_D04 (antibody, V domains shown)
VH: QVQLQESGPGLVKPSETLSLTCTVSGGSISGYYWSWIRQPPGKGLEWIGYIYYSGSTNYNPSLKSRVTISVDTSKNQFSLKLSSVTAADTAVYYCAREPPYYDFWSGLSMGVGAFDFWGQGTMVTVSS
VL: DVLMTQSPLSLPVSLGDQASISCRSSQSIVHSNGNTYLEWYLQKPGQSPKLLIYKVSNRFSGVPDRFSGSGSGTDFTLRISRVEAEDLGVYYCFQGSHVPCTFGGGTKLEIK
B6: MPER18_d21_45.2_v55_m15_E09 (antibody, V domains shown)
VH: QVQLQESGPGLVKPSETLSLTCTVSGGSISNYYWSWIRQPPGKGLEWIGYFYYSGTTNYNPSLKSRVTISVDTSKNQFSLKLSSVTAADTAVYYCAREPPYYDFWSGLSMGVGAFDIWGQGTMVTVSS
VL: DVLMTQTPLSLPVSLGDQASISCRSSQSIVYSNGYTYLEWYLQKPGQSPKLLIYKVSNRFSGVPDRFSGSGSGTDFTLKISRVEAEDLGVYYCFQGSHVPWTFGGGTKLEIK
B7: MPER18_d21_45.2_v55_m15_D07 (antibody, V domains shown)
VH: QVQLQESGPGLVRPSETLSLTCTVSGGSISSYYWSWIRQPPGKGLEWIGYIYYSGSTNYNPSLKSRVTISVDTSKNQFSLKLNSVTAADTAVYYCTREPPYYDFWSELSLGVGAFDIWGQGTMVTVSS
VL: DIVMTQSPLSLPVSLGDQASISCRSSQTIVHSNGYTYLEWYLQKPGQSPKLLIYKVSNRFSGVPDRFSGSGSGTDFTLKISRVEAEDLGVYYCFQGSHVPWTFGGGTKLEIK
B8: MPER18_d21_45.2_v55_m5_E10 (antibody, V domains shown)
VH: QVQLQESGPGLVKPSETLSLTCSVSGGSISGYYWSWIRQPPGKGLEWIGYIFYSGSTNYNPSLKSRVTISVDTSKNQFSLKLTSVTAADTAVYYCAREPPYYDFWSGLSMGVGAFDIWGQGTMVTVSS
VL: DIVMTQTPLSLPVSLGDQASISCSSSQNIVHSNGYTYLEWYLQKPGQSPKLLIYKVSNRFSGVPDRFSGSGSGTDFTLKISRVEAEDLGVYYCFQGSHVPYTFGGGTKLEIK
B9: MPER18_d21_45.2_v55_m5_D04 (antibody, V domains shown)
VH: QVQLQESGPGLVKPSETLSLTCTVSGGSISSYYWSWIRQPPGKGLEWIGHIYYSGSTNYNPSLKGRVTISVDTSKNQFSLKLTSVTAADTAVYYCAREPPYYDFWSGLSMGVGAFDIWGQGTMVTVSS
VL: DVLMTQTPLSLPVSLGDQASISCRSSQSIVHSNGYTYVEWYLQKPGQSPKLLIYKVSNRFSGVPDRFTGSGSGTDFTLKISRVEAADLGVYYCFQGSHVPYTFGGGTKLEIK
B10: NHP-10E8_MPER-GT10v55_W10-11 (antibody, V domains shown)
VH: EVQLVESGGGLVQPGGSLRLSCAASGFAFSDYTMDWVRQAPGKGLEWVGFIRSRDYGGKVDYAASVKGRFTISRDDSKNTAYLHMSSLKTEDTAVYYCTRSKRHYSFWSGDYPHYGLDSWGQGVVVTVSS
VL: QSVVTQPPSVSGDPGQRVTIYCTGNSSNIGGYDVYWYQQVPGTAPKLLMYENNKRPSGVSDRFSGSKSGTSASLTITGLQSEDEAEYYCETWDNSLNGRVFGGGTRLTV
B11: NHP-10E8_MPER-GT10v55_W10-12 (antibody, V domains shown)
VH: EVHLVESGGGLVQPGGSLRLSCAASGFTFSDYAMDWVRQAPGKGLEWVGFIGSKDYGGTVEYAASVKGRFTISRDDLKNTAYLQMSRLKTEDTAVYYCTRSKTCYSFWSGYYPHYGLDSWGQGVVVTVSS
VL: QSVLTQPPSVSGDPGQRVTISCTGNSSNIGGFDVYWYQLLPGTAPKLLIYENTKRPSGISDRFSGSKSGTSASLTITGLQSEDEAEYYCETWDNSLNGRLFGGGTRLTV
B12: NHP-10E8_MPER-GT10v55_W21-05 (antibody, V domains shown)
VH: EVRLVESGGGLVQPGGSLRLSCAASGFTFSDYYMSWVRQAPGKGPEWVGFIRNKANGGTAEYAASVKGRFTISRDDSKSIASLQMNSLKTEDTAVYYCARDTYTYNFWSGYYRSNSLDVWGRGVLVTVSS
VL: SYDLTQPPSVSVSPGQTARITCGGDNIGSEAVHWYQQKPPQAPVQVIYSDSERPSGIPERFSGSKSGNTATLTISGVEAGDEADYYCQVWDISSDHYIFGAGTRLTV
B13: NHP-10E8_MPER-GT10v55_W21-03 (antibody, V domains shown)
VH: EVHLVESGAGLVQPGGSLRLSCAASGFTFRNSWMSWVRQAPGKGLEWIARIKRKADGETTDYAASVKGRFTLSRDDSKNTVYLQMDSLKTEDTAVYYCTTDQGYYNFWSGNYDYYGLDSWGQGVVVAVSS
VL: DIQMTQSPSSLSAFVGDRVTITCRASQGISTHLNWYQQKPGKAPKRLIYTSSNLETGVPSRFSGSGSGTDFTLTISSLQPEDFATYYCLQYNSDPWTFGQGTKVEIK
B14: NHP-10E8_MPER-GT10v55_W21-01 (antibody, V domains shown)
VH: EVRLVESGGGLVQPGGSLRLSCAASGFTFSDYYMSWVRQAPGKGPEWVGFIRNKANGGTAEYAASVKGRFTISRDDSKSIASLQMNSLKTEDTAVYYCARAPLHYNFWSGYYTDYGLDSWGQGVVVTVSS
VL: DIVMTQSPDSLAVSLGERVTINCKSSQSLLYSSNNKNYLAWYQQKPGQAPKLLIYWASTRESGVPNRFSGSGSGSDFTLTISGLQAEDVAVYYCQQYYSTPHSFGQGTKVEIK
B15: NHP-10E8_MPER-GT10v55_W21-06 (antibody, V domains shown)
VH: EVRLVESGGGLVQPGGSLRLSCAASGFTFSDYYMSWVRQAPGKGPEWVGFIRNKANGGTAEYAASVKGRFTISRDDSKSIASLQMNSLKTEDTAVYYCAREKVYYNFWSGYLENYGLDSWGQGVVVTVSS
VL: DVVMTQSPLSLPITPGQPASISCRSSQSLVYSDGKTYLNWYQQKPGQPPRRLIYQVSNRDSGVPDRFSGSGAGTDFTLKISRVEAEDVGVYYCMQGTHLPYSFGQGTKVEIK
B16: NHP-10E8_MPER-GT10v55_W21-09 (antibody, V domains shown)
VH: EVRLVESGGGLVQPGGSLRLSCAASGFTFSDYYMSWVRQAPGKGPEWVGFIRNKANGGTAEYAASVKGRFTISRDDSKSIASLQMNSLKTEDTAVYYCARESPYYNFWSGYYGTNDAFDFWGQGLRVTVSS
VL: QPVLTQSPSASASLGASVKLTCTLSSGHSSYAIAWHQQQQGKAPRYLMRLNSVGSHSKGDGIPDRFSGSSSGAERYLTISNLQSEDEADYYCQTWTTGIQVFGGGTRLTV
B17: NHP-10E8_MPER-GT10v55_W21-02 (antibody, V domains shown)
VH: EVQLVESGGGLVQPGGSLRLSCAASGFTFSNYWMSWVRQAPGKGLEWVGFIKNKADGGTAAYAESVKGRFTISRDDSKNTLYLQMNSLKTEDTAVYYCARAGAPYYNFWSGYYESYDAFDFWGQGLRVTVSS
VL: QPVLTQPTSLSASPGASARLTCTLRSGISVGSYRIFWYQQKPGSPPRYLLNYHTDSDKHQGSGVPSRFSGSKDASANAGILLISGLQSEDEADYYCMIWHNNAVLFGGGTRLTV
B18: NHP-10E8_MPER-GT10v55_W26-02 (antibody, V domains shown)
VH: EVQLVESGGGLAKPGGSLRLSCAASGFTFSDYYMDWVRQAPGKGLEWVSRISNGGGSTWYADSVKGRFTISRENAKNTLYLQMNSLRAEDTAVYYCASELSYYNFWSGYGASYGLDSWGQGVVVTVSS
VL: QPVLTQPTSLSASPGASARLTCTLRSGISVGSYRIFWYQQKPGSPPRYLLNYHTDSDKHQGSGVPSRFSGSKDASANAGILLISGLQSEDEADYYCMIWHNNAYIFGAGTRLTV
B19: NHP-10E8_MPER-GT10v55_W21-07 (antibody, V domains shown)
VH: EVQLVESGGGLVQPGGSLRLSCAASGFTFSDYAMDWVRQAPGKGLEWVGFIRSKAYGGTAEYAASVKGRFTISRDDSKNTAYLQMSSLKTEDTAVYYCTRAARGYNFWSGYYTGYGLDSWGQGVVVTVSS
VL: EIVMTQSPATLSLSPGERATLSCRTSQSVSSYVAWYQQKPEQAPRLLIYGASSRATGIPDRFSGGGSGTDFTLTISSLEPEDFAVYYCQQYSNWPYSFGQGTKVEIK
B20: NHP-10E8_MPER-GT10v55_W21-08 (antibody, V domains shown)
VH: EVQLVESGGGLVQPGGSLRLSCAASGFTFSDYYMYWVRQAPGKGLEWVGFIRSKAYGGTAEYAASVKGRFTISRDDSKSIAYLQMSSLKTEDTAVYYCTRALPYYNFWSGYYTHFDAFDFWGQGLRVTVSS
VL: QAAPTQPPSVSGSPGQSVTISCTGTSSDIGYYNAVSWYQQHPGKAPKLMIYEVSKRPSGVSDRFSGSKSGNTASLTISGLQAEDEADYYCSSYAGSNTLLFGGGTRLTV

This assay has as its target T1, 10E8-GT10.2 epitope scaffold.
Broadly, the Kd is the free concentration of one partner at which half of the binding sites on the other are occupied at equilibrium, for simple one-to-one binding. High values mean lower affinity, low ones higher affinity. The molecule B1 displayed a Kd of 0.0956 µM.
On to B2, for which the Kd is 5.05 µM.
The same measure for B3: 3.69 µM; for B4: 0.0326 µM.
The figure for B5 is 0.0219 µM; for B6 it is 0.0148 µM.
The same measure for B7: 0.00279 µM; for B8: 0.000571 µM; for B9: 0.000714 µM.
B10 had a Kd of 4.16 µM.
The figure for B11 is 0.752 µM; for B12 it is 2.41 µM; for B13 it is 8.32 µM.
The figure for B14 is 6.75 µM; for B15 it is 5.92 µM.
The figure for B16 is 3.32 µM; for B17 it is 4.56 µM.
For the molecule B18, the Kd was 3.09 µM.
The figure for B19 is 7.64 µM; for B20 it is 13.2 µM.
